The record followed here is the supplement of paper PMC11316812.

Data set [1] has as its system MCF7. The data set is described as follows: percentage of EdU-negative (G0-arrested) nuclei per well, 72 h; higher = more G0 arrest. The settings on record: reference: sequence is the full UniProt precursor, the tested protein was the secreted form or ectodomain.
Data set [2] has as its system hTERT-HMEC. The data set is described as above. The settings on record: reference: sequence is the full UniProt precursor, the tested protein was the secreted form or ectodomain.
Setting [3] is: protein concentration 0.019925 µM.
Where [4] appears, read: protein concentration 0.19925 µM.
The mark [5] stands for this setting: protein concentration 0.0219975 µM.
The mark [6] stands for this setting: protein concentration 0.219975 µM.
[7] abbreviates: protein concentration 0.0225 µM.
Setting [8] is: protein concentration 0.0217075 µM.
Setting [9] is: protein concentration 0.217075 µM.
Setting [10] is: protein concentration 0.0254286 µM.
[11] abbreviates: protein concentration 0.254286 µM.

± gives the standard deviation of the averaged measurements.
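Also: secreted proteins added to cultured cells, EdU pulse at the end, nuclei found by Hoechst imaging, EdU status from nuclear versus surrounding ring intensity ratio, PBS as neutral control.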

With “MTILGTTFGMVFSLLQVVSGESGYAQNGDLEDAELDDYSFSCYSQLEVNGSQHSLTCAFEDPDVNITNLEFEICGALVEVKCLNFRKLQEIYFIETKKFLLIGKSNICVKVGEKSLTCKKIDLTTIVKPEAPFDLSVVYREGANDFVVTFNTSHLQKKYVKVLMHDVAYRQEKDENKWTHVNLSSTKLTLLQRKLQPAAMYEIKVRSIPDHYFKGFWSEWSPSYYFRTPEINNSSGEMDPILLTISILSFFSVALLVILACVLWKKRIKPIVWPSLPDHKKTLEHLCKKPRKNLNVSFNPESFLDCQIHRVDDIQARDEVEGFLQDTFPQQLEESEKQRLGGDVQSPNCPSEDVVITPESFGRDSSLTCLAGNVSACDAPILSSSRSLDCRESGKNGPHVYQDLLLSLGTTNSTLPPPFSLQSGILTLNPVAQGQPILTSLGSNQEEAYVTMSSFYQNQ”, the “percentage of EdU-negative” value came to 28.1 ± 1.4% in data set [1] (setting [3]), 27.6 ± 2.4% in data set [1] (setting [4]), 5.3 ± 0.72% in data set [2] (setting [3]) and 5.96 ± 0.062% in data set [2] (setting [4]).

In the case of “MCHQQLVISWFSLVFLASPLVAIWELKKDVYVVELDWYPDAPGEMVVLTCDTPEEDGITWTLDQSSEVLGSGKTLTIQVKEFGDAGQYTCHKGGEVLSHSLLLLHKKEDGIWSTDILKDQKEPKNKTFLRCEAKNYSGRFTCWWLTTISTDLTFSVKSSRGSSDPQGVTCGAATLSAERVRGDNKEYEYSVECQEDSACPAAEESLPIEVMVDAVHKLKYENYTSSFFIRDIIKPDPPKNLQLKPLKNSRQVEVSWEYPDTWSTPHSYFSLTFCVQVQGKSKREKKDRVFTDKTSATVICRKNASISVRAQDRYYSSSWSEWASVPCS”, the “percentage of EdU-negative” value in data set [1] (setting [5]) was 27.4 ± 2.1%; in data set [1] (setting [6]) it was 27.5 ± 0.78%; in data set [2] (setting [5]), 5.23 ± 1.3%; in data set [2] (setting [6]) it was 7.74 ± 1.1%.

For the sequence “MPRRSLHAAAVLLLVILKEQPSSPAPVNGSKWTYFGPDGENSWSKKYPSCGGLLQSPIDLHSDILQYDASLTPLEFQGYNLSANKQFLLTNNGHSVKLNLPSDMHIQGLQSRYSATQLHLHWGNPNDPHGSEHTVSGQHFAAELHIVHYNSDLYPDASTASNKSEGLAVLAVLIEMGSFNPSYDKIFSHLQHVKYKGQEAFVPGFNIEELLPERTAEYYRYRGSLTTPPCNPTVLWTVFRNPVQISQEQLLALETALYCTHMDDPSPREMINNFRQVQKFDERLVYTSFSQVQVCTAAGLSLGIILSLALAGILGICIVVVVSIWLFRRKSIKKGDNKGVIYKPATKMETEAHA”, the “percentage of EdU-negative” value worked out at 26 ± 0.83% in data set [1] (setting [7]), 25.7 ± 0.64% in data set [1] (protein concentration 0.225 µM), 5.44 ± 1.7% in data set [2] (setting [7]) and 5.5 ± 1.2% in data set [2] (protein concentration 0.225 µM).

“MLVDGPSERPALCFLLLAVAMSFFGSALSIDETRAHLLLKEKMMRLGGRLVLNTKEELANERLMTLKIAEMKEAMRTLIFPPSMHFFQAKHLIERSQVFNILRMMPKGAALHLHDIGIVTMDWLVRNVTYRPHCHICFTPRGIMQFRFAHPTPRPSEKCSKWILLEDYRKRVQNVTEFDDSLLRNFTLVTQHPEVIYTNQNVVWSKFETIFFTISGLIHYAPVFRDYVFRSMQEFYEDNVLYMEIRARLLPVYELSGEHHDEEWSVKTYQEVAQKFVETHPEFIGIKIIYSDHRSKDVAVIAESIRMAMGLRIKFPTVVAGFDLVGHEDTGHSLHDYKEALMIPAKDGVKLPYFFHAGETDWQGTSIDRNILDALMLNTTRIGHGFALSKHPAVRTYSWKKDIPIEVCPISNQVLKLVSDLRNHPVATLMATGHPMVISSDDPAMFGAKGLSYDFYEVFMGIGGMKADLRTLKQLAMNSIKYSTLLESEKNTFMEIWKKRWDKFIADVATK [Q9NZK5]”: the “percentage of EdU-negative” value was determined as 24.5 ± 1.2% in data set [1] (setting [8]), 28.4 ± 1.5% in data set [1] (setting [9]), 4.31 ± 0.15% in data set [2] (setting [8]) and 7.86 ± 0.091% in data set [2] (setting [9]).

Turning to “MLWRQLIYWQLLALFFLPFCLCQDEYMESPQTGGLPPDCSKCCHGDYSFRGYQGPPGPPGPPGIPGNHGNNGNNGATGHEGAKGEKGDKGDLGPRGERGQHGPKGEKGYPGIPPELQIAFMASLATHFSNQNSGIIFSSVETNIGNFFDVMTGRFGAPVSGVYFFTFSMMKHEDVEEVYVYLMHNGNTVFSMYSYEMKGKSDTSSNHAVLKLAKGDEVWLRMGNGALHGDHQRFSTFAGFLLFETK [Q9BXJ4]”, the “percentage of EdU-negative” value was 24.8 ± 1.7% in data set [1] (setting [7]), 26.38 ± 0.15% in data set [1] (protein concentration 0.225 µM), 5.75 ± 0.2% in data set [2] (setting [7]) and 5.41 ± 0.19% in data set [2] (protein concentration 0.225 µM).

Consider “MWQLLLPTALLLLVSAGMRTEDLPKAVVFLEPQWYSVLEKDSVTLKCQGAYSPEDNSTQWFHNENLISSQASSYFIDAATVNDSGEYRCQTNLSTLSDPVQLEVHIGWLLLQAPRWVFKEEDPIHLRCHSWKNTALHKVTYLQNGKDRKYFHHNSDFHIPKATLKDSGSYFCRGLVGSKNVSSETVNITITQGLAVSTISSFSPPGYQVSFCLVMVLLFAVDTGLYFSVKTNI”, for which the “percentage of EdU-negative” value in data set [1] (setting [7]) came out at 25.6 ± 2.5%; in data set [1] (protein concentration 0.225 µM), 25.5 ± 3.6%; in data set [2] (setting [7]), 4.18 ± 0.071%; in data set [2] (protein concentration 0.225 µM) it was 4.98 ± 1.1%.

Regarding “MGLTLLLLLLLGLEGQGIVGSLPEVLQAPVGSSILVQCHYRLQDVKAQKVWCRFLPEGCQPLVSSAVDRRAPAGRRTFLTDLGGGLLQVEMVTLQEEDAGEYGCMVDGARGPQILHRVSLNILPPEEEEETHKIGSLAENAFSDPAGSANPLEPSQDEKSIPLIWGAVLLVGLLVAAVVLFAVMAKRKQGNRLGVCGRFLSSRVSGMNPSSVVHHVSDSGPAAELPLDVPHIRLDSPPSFDNTTYTSLPLDSPSGKPSLPAPSSLPPLPPKVLVCSKPVTYATVIFPGGNKGGGTSCGPAQNPPNNQTPSS [Q86YW5]”, the “percentage of EdU-negative” value in data set [1] (setting [10]) worked out at 20.7 ± 3.4%; in data set [1] (setting [11]) it was 26 ± 4.5%; in data set [2] (setting [10]) it was 5.07 ± 0.49%; in data set [2] (setting [11]), 5.75 ± 0.65%.
